Substrate in this data set: CCCCCc1cc(O)c2c(c1)OC(C)(C)c1ccc(C)cc1-2
Put plainly: cells, lysate or membranes named. The following applies: UDP-GlcUA 4 mM, 37° C., 30 min, TLC, pH 7.4.

[1] abbreviates: other: UGT1A7, 5 μg membrane protein.
Setting [2] is: other: UGT1A10, 5 μg membrane protein.
Where [3] appears, read: other: UGT1A8, 5 μg membrane protein.
Setting [4] is: other: UGT1A9, 5 μg membrane protein.

A word on the Km: it is the concentration of substrate that gives half-maximal velocity. One may read the Vmax as the rate approached at saturating substrate.

B1: recombinant human UGT1A7 (Homo sapiens) (protein)
chain: GKLLVVPMDGSHWFTMQSVVEKLILRGHEVVVVMPEVSWQLGRSLNCTVKTYSTSYTLEDQDREFMVFADARWTAPLRSAFSLLTSSSNGIFDLFFSNCRSLFNDRKLVEYLKESCFDAVFLDPFDACGLIVAKYFSLPSVVFARGIFCHYLEEGAQCPAPLSYVPRLLLGFSDAMTFKERVWNHIMHLEEHLFCPYFFKNVLEIASEILQTPVTAYDLYSHTSIWLLRTDFVLEYPKPVMPNMIFIGGINCHQGKPVPMEFEAYINASGEHGIVVFSLGSMVSEIPEKKAMAIADALGKIPQTVLWRYTGTRPSNLANNTILVKWLPQNDLLGHPMTRAFITHAGSHGVYESICNGVPMVMMPLFGDQMDNAKRMETKGAGVTLNVLEMTSEDLENALKAVINDKSYKENIMRLSSLHKDRPVEPLDLAVFWVEFVMRHKGAPHLRPAAHDLTWYQYHSLDVIGFLLAVVLTVAFITFKCCAYGYRKCLGKKGRVKKAHKSKTH
In the case of B1, under setting [1], the Km turned out to be 19 ± 3.9 µM and the Vmax was 0.00024 µmol/min/mg.

B2: recombinant human UGT1A10 (Homo sapiens) (protein)
chain: GKLLVVPMDGSHWFTMQSVVEKLILRGHEVVVVMPEVSWQLERSLNCTVKTYSTSYTLEDQNREFMVFAHAQWKAQAQSIFSLLMSSSSGFLDLFFSHCRSLFNDRKLVEYLKESSFDAVFLDPFDTCGLIVAKYFSLPSVVFTRGIFCHHLEEGAQCPAPLSYVPNDLLGFSDAMTFKERVWNHIVHLEDHLFCQYLFRNALEIASEILQTPVTAYDLYSHTSIWLLRTDFVLDYPKPVMPNMIFIGGINCHQGKPLPMEFEAYINASGEHGIVVFSLGSMVSEIPEKKAMAIADALGKIPQTVLWRYTGTRPSNLANNTILVKWLPQNDLLGHPMTRAFITHAGSHGVYESICNGVPMVMMPLFGDQMDNAKRMETKGAGVTLNVLEMTSEDLENALKAVINDKSYKENIMRLSSLHKDRPVEPLDLAVFWVEFVMRHKGAPHLRPAAHDLTWYQYHSLDVIGFLLAVVLTVAFITFKCCAYGYRKCLGKKGRVKKAHKSKTH
On to B2, for which, under setting [2], the Michaelis constant (Km) amounted to 59 ± 10 µM and the Vmax is 0.00091 µmol/min/mg.

B3: recombinant human UGT1A8 (Homo sapiens) (protein)
chain: GKLLVVPMDGSHWFTMQSVVEKLILRGHEVVVVMPEVSWQLGKSLNCTVKTYSTSYTLEDLDREFMDFADAQWKAQVRSLFSLFLSSSNGFFNLFFSHCRSLFNDRKLVEYLKESSFDAVFLDPFDACGLIVAKYFSLPSVVFARGIACHYLEEGAQCPAPLSYVPRILLGFSDAMTFKERVRNHIMHLEEHLFCQYFSKNALEIASEILQTPVTAYDLYSHTSIWLLRTDFVLDYPKPVMPNMIFIGGINCHQGKPLPMEFEAYINASGEHGIVVFSLGSMVSEIPEKKAMAIADALGKIPQTVLWRYTGTRPSNLANNTILVKWLPQNDLLGHPMTRAFITHAGSHGVYESICNGVPMVMMPLFGDQMDNAKRMETKGAGVTLNVLEMTSEDLENALKAVINDKSYKENIMRLSSLHKDRPVEPLDLAVFWVEFVMRHKGAPHLRPAAHDLTWYQYHSLDVIGFLLAVVLTVAFITFKCCAYGYRKCLGKKGRVKKAHKSKTH
With B3, under setting [3], the Km amounted to 44 ± 8.1 µM and the Vmax was found to be 0.00049 µmol/min/mg.

B4: recombinant human UGT1A9 (Homo sapiens) (protein)
chain: GKLLVVPMDGSHWFTMRSVVEKLILRGHEVVVVMPEVSWQLGRSLNCTVKTYSTSYTLEDLDREFKAFAHAQWKAQVRSIYSLLMGSYNDIFDLFFSNCRSLFKDKKLVEYLKESSFDAVFLDPFDNCGLIVAKYFSLPSVVFARGILCHYLEEGAQCPAPLSYVPRILLGFSDAMTFKERVRNHIMHLEEHLLCHRFFKNALEIASEILQTPVTEYDLYSHTSIWLLRTDFVLDYPKPVMPNMIFIGGINCHQGKPLPMEFEAYINASGEHGIVVFSLGSMVSEIPEKKAMAIADALGKIPQTVLWRYTGTRPSNLANNTILVKWLPQNDLLGHPMTRAFITHAGSHGVYESICNGVPMVMMPLFGDQMDNAKRMETKGAGVTLNVLEMTSEDLENALKAVINDKSYKENIMRLSSLHKDRPVEPLDLAVFWVEFVMRHKGAPHLRPAAHDLTWYQYHSLDVIGFLLAVVLTVAFITFKCCAYGYRKCLGKKGRVKKAHKSKTH
In the case of B4, under setting [4], the Km was 3.4 ± 1.3 µM and the Vmax was 0.0001 µmol/min/mg.

(Values after patent US8410064B2, “Classical cannabinoid metabolites and methods of use thereof” (priority 2009, dated 2013).)
